Patent US6015560
Where two headings read alike, the source gives them in different places.

Tests used:
[1] = target: integrin complement receptor 3 (CR3) on human leukocytes (human) (UniProt P11215)
[2] = target: integrin complement receptor 3 (CR3) on human leukocytes (human) (UniProt P11215); remark: listed apart in the source
[3] = target: integrin complement receptor 3 (CR3) on human leukocytes (human) (UniProt P11215); test: competition: 125I-Factor X binding to fMLP-stimulated human neutrophils
[4] = target: integrin complement receptor 3 (CR3) on human leukocytes (human) (UniProt P11215); test: macrophages spread on antibody-coated wells; residual CD11b/CD18 detected with C3bi-coated erythrocytes
[5] = target: integrin complement receptor 3 (CR3) on human leukocytes (human) (UniProt P11215); remark: listed apart in the source
[6] = target: integrin complement receptor 3 (CR3) on human leukocytes (human) (UniProt P11215); remark: listed apart in the source
[7] = target: integrin complement receptor 3 (CR3) on human leukocytes (human) (UniProt P11215); remark: listed apart in the source

Row | Substance | inhibition of transendothelial migration of neutrophils [1] [%] | inhibition of neutrophil adherence to TNF-stimulated HUVEC [2] [%] | % inhibition of 125I-Factor X binding [3] [%] | % reduction of the binding of C3bi-coated erythrocytes to macrophages [4] [%] | % Inhibition of TEM (transendothelial migration of neutrophils) [5] [%] | % inhibition of 125I-Factor X binding [6] [%] | concentration at which inhibition of neutrophil adherence was lost [7] [µM] | IC50 [3] [nM]
1 | mAb W6/32 against HLA class I antigen (antibody) | 6 |  |  |  |  |  |  | 
2 | mAb IB4 against CD18 (antibody) | 73 | 38 | 53 | 67 |  |  |  | 
3 | Filamentous hemagglutinin (FHA) of Bordetella pertussis, native purified protein (from UniProt P12255) (ligand) |  |  |  |  | 82 | 70 | 0.001 | 100
